Source: PMC3035870 (Molecular microbiology, 2009)
Numbering of substitutions follows the chain as printed. Names and notes keep the numbering of the source. Like-named read-outs stand apart in the source and are kept apart here.

B1: Geobacillus stearothermophilus replicative helicase DnaB (enzyme, G. stearothermophilus (strain NCA1503), UniProt Q9X4C9 1-454, looked up)
chain: MSELFSERIPPQSIEAEQAVLGAVFLDPAALVPASEILIPEDFYRAAHQKIFHAMLRVADRGEPVDLVTVTAELAASEQLEEIGGVSYLSELADAVPTAANVEYYARIVEEKSVLRRLIRTATSIAQDGYTREDEIDVLLDEADRKIMEVSQRKHSGAFKNIKDILVQTYDNIEMLHNRDGEITGIPTGFTELDRMTSGFQRSDLIIVAARPSVGKTAFALNIAQNVATKTNENVAIFSLEMSAQQLVMRMLCAEGNINAQNLRTGKLTPEDWGKLTMAMGSLSNAGIYIDDTPSIRVSDIRAKCRRLKQESGLGMIVIDYLQLIQGSGRSKENRQQEVSEISRSLKALARELEVPVIALSQLSRSVEQRQDKRPMMSDIRESGSIEQDADIVAFLYRDDYYNKDSENKNIIEIIIAKQRNGPVGTVQLAFIKEYNKFVNLERRFDEAQIPPGA
B2: Δτ18, B. subtilis τ lacking the last 18 C-terminal residues (domain or fragment, B. subtilis (strain 168), UniProt P09122 1-545, looked up)
chain: MSYQALYRVFRPQRFEDVVGQEHITKTLQNALLQKKFSHAYLFSGPRGTGKTSAAKIFAKAVNCEHAPVDEPCNECAACKGITNGSISDVIEIDAASNNGVDEIRDIRDKVKFAPSAVTYKVYIIDEVHMLSIGAFNALLKTLEEPPEHCIFILATTEPHKIPLTIISRCQRFDFKRITSQAIVGRMNKIVDAEQLQVEEGSLEIIASAADGGMRDALSLLDQAISFSGDILKVEDALLITGAVSQLYIGKLAKSLHDKNVSDALETLNELLQQGKDPAKLIEDMIFYFRDMLLYKTAPGLEGVLEKVKVDETFRELSEQIPAQALYEMIDILNKSHQEMKWTNHPRIFFEVAVVKICQTSHQSAADLPEVDMLMKKIQQLEQEVERLKTTGIKAAAESPKKEAPRVPKGGKSNYKAPVGRIHEILKEATRPDLDLLRNSWGKLLAHLKQQNKVSHAALLNDSEPVAAGSAAFVLKFKYEIHCKMVAEDNNGVRTNLEQILESMLGKRMDLIGVPEAQWGKIREEFLEDHQQENEGSNEPAEEDP
B3: Bacillus subtilis τ subunit of the clamp-loader (DnaX) (natural protein, B. subtilis (strain 168), UniProt P09122 1-563, looked up)
chain: MSYQALYRVFRPQRFEDVVGQEHITKTLQNALLQKKFSHAYLFSGPRGTGKTSAAKIFAKAVNCEHAPVDEPCNECAACKGITNGSISDVIEIDAASNNGVDEIRDIRDKVKFAPSAVTYKVYIIDEVHMLSIGAFNALLKTLEEPPEHCIFILATTEPHKIPLTIISRCQRFDFKRITSQAIVGRMNKIVDAEQLQVEEGSLEIIASAADGGMRDALSLLDQAISFSGDILKVEDALLITGAVSQLYIGKLAKSLHDKNVSDALETLNELLQQGKDPAKLIEDMIFYFRDMLLYKTAPGLEGVLEKVKVDETFRELSEQIPAQALYEMIDILNKSHQEMKWTNHPRIFFEVAVVKICQTSHQSAADLPEVDMLMKKIQQLEQEVERLKTTGIKAAAESPKKEAPRVPKGGKSNYKAPVGRIHEILKEATRPDLDLLRNSWGKLLAHLKQQNKVSHAALLNDSEPVAAGSAAFVLKFKYEIHCKMVAEDNNGVRTNLEQILESMLGKRMDLIGVPEAQWGKIREEFLEDHQQENEGSNEPAEEDPLIAEAKKLVGADLIEIKD
B4: Bacillus subtilis τ A550V mutant (natural protein, B. subtilis (strain 168), UniProt P09122 1-563, looked up)
chain: B3 chain with A550V

Key:
Experiment in all cases: SEC
SEC [1] = target: the molecule itself
[2] = target: B2
[3] = target: B4
SEC [4] = target: the molecule itself; remark: listed apart in the source

| Binder | binding result (SEC [1]) | binding result [2] | binding result [3] | binding result (SEC [4]) |
| --- | --- | --- | --- | --- |
| B1 | binds | binds | binds | – |
| B2 | binds | – | – | – |
| B3 | binds | – | – | – |
| B4 | – | – | – | binds |
